# Marks after values point to notes of the source that are not given here.
# How the values were obtained:
# Meth A cells = assay: Antineoplastic activity of the complexes of Examples 1, 5 and 6 (Example 10); format: in vivo, BALB/c mice; settings: singly administered on the 7th day; for IR, diminution rate of the tumor: 21th day; for Average tumor weight: tumor weighed on the 21th day
# Procedure: (§1) Meth A cells were transplanted into BALB/c mice to prepare Meth A tumor-bearing mice. On the 7th day after the transplantation, the drug complexes shown in Examples 1, 5 and 6 were singly administered, respectively. The weight of the tumor was measured on the 21th day to evaluate the inhibitory activity on the tumor and the toxicity. In the table, * represents significance in Dunnet's test (*** p<0.001, ** P<0.01, * P<0.05), the dose is expressed in terms of the weight of anhydrous free base of DX-8951, and IR represents the diminution rate of the tumor.
# [1] = system: Meth A tumor-bearing mice; assay: Maximum tolerated dose (MTD) of the drug complex of Example 1 (Example 3); format: in vivo, BALB/c mice; settings: for N, mice died/mice used / BWLmax, maximum body-weight reduction rate / day when the maximum body-weight reduction was observed: single administration on the 20th day
# Procedure: (§2) Meth A cells were transplanted into BALB/c mice to prepare Meth A tumor-bearing mice. On the 20th day, single administration of the drug complex of Example 1 was carried out. After the administration, measurement of the body weight and observation of toxic death were made with time and the maximum body-weight reduction rate and mortality were calculated, which are shown in Table 2. The dose is expressed in terms of the weight of anhydrous free base of DX-8951.
# [2] = Release of the drug compound from the drug complex in buffer (Example 2); format: physicochemical; settings: for released amount of the drug (DX-8951), percentage of the drug in the drug complex used: 37° C., 378 μg/ml, after 20 hours
# Procedure: (§3) The drug complex obtained in Example 1 was dissolved in a Meth A (murine fibrosarcoma Meth A) homogenate or a buffer at 37° C. (378 μg/ml). After 20 hours, released DX-8951 was determined. The compound wherein the spacer and DX-8951 were bound to each other without p-aminobenzyloxycarbonyl group was prepared and used as a comparative compound. The released amount of the drug is expressed in percentage of the released amount of the drug to the amount of the drug in the drug complex used.
# [3] = system: Meth A cells (murine fibrosarcoma Meth A); assay: Antineoplastic activity of the drug complex of Example 1 (Example 4); format: in vivo, BALB/c mice; settings: for BWLmax, maximum body-weight reduction rate / N, mice died/mice used / IR, diminution rate of the tumor / Average tumor weight / day when the maximum body-weight reduction was observed: administered on the 7th day; for IR, diminution rate of the tumor: 21th day; for Average tumor weight: tumor weighed on the 21th day
# Procedure: as §1, with “cells (murine fibrosarcoma Meth A)” for “cells”, “complex of Example 1 was administered.” for “complexes shown in Examples 1, 5 and 6 were singly administered, respectively.”, “P<0.001,” for “p<0.001,”, “P<0.01),” for “P<0.01, * P<0.05),”
# [4] = Release of the drug compound from the drug complex in mouse plasma (Example 2); format: in vitro ADME; settings: 37° C., 378 μg/ml, after 20 hours
# [5] = Release of the drug compound from the drug complex in Meth A homogenate (Example 2); format: in vitro ADME, murine; settings: for released amount of the drug (DX-8951), percentage of the drug in the drug complex used: 37° C., 378 μg/ml, after 20 hours
# Procedure: as §3
# [6] = system: Meth A tumor-bearing mice; assay: Maximum tolerated dose of the drug complexes of Examples 5, 6 and 7 (Example 9); format: in vivo, BALB/c mice; settings: single administration on the 13th day
# Procedure: as §2, with “13th” for “20th”, “day,” for “day, single administration of”, “complexes obtained in Examples 5, 6 and 7 were singly administered.” for “complex of Example 1 was carried out.”, “time,” for “time”, “5.” for “2.”
# On the basis of the dose in which body weight reduction and death were observed, MTD of each complex were judged as follows.
# [7] = Release of the drug compound from the drug complex in buffer (Example 8); format: physicochemical; settings: for released amount of the drug (DX-8951), percentage of the drug in the drug complex used: 37° C., 50 μg/ml, after 20 hours
# Procedure: (50 μg/ml). […] The released amount of the drug is expressed in percentage of the released amount of the drug to the amount of the drug in the drug complex used.
substance,measurement,setting,value
Carboxymethyldextran polyalcohol-Gly-Gly-Gly-Phe-NH-p-C6H4—CH2—O—CO-DX-8951 [Example 6],"IR, diminution rate of the tumor",Meth A cells; 0.15625 mg/kg,37%
same,Average tumor weight,Meth A cells; 0.15625 mg/kg,1.645 ± 0.191* g
same,"IR, diminution rate of the tumor",Meth A cells; 0.3125 mg/kg,46%
same,Average tumor weight,Meth A cells; 0.3125 mg/kg,1.419 ± 0.163** g
same,"IR, diminution rate of the tumor",Meth A cells; 0.625 mg/kg,90%
same,Average tumor weight,Meth A cells; 0.625 mg/kg,0.272 ± 0.066*** g
same,"IR, diminution rate of the tumor",Meth A cells; 1.25 mg/kg,99%
same,Average tumor weight,Meth A cells; 1.25 mg/kg,0.016 ± 0.008*** g
Carboxymethyldextran polyalcohol-Gly-Gly-Phe-Gly-NH-p-C6H4—CH2—O—CO-DX-8951 [Example 1],"N, mice died/mice used",[1]; 0.156 mg/kg,0/2
same,"BWLmax, maximum body-weight reduction rate","[1]; 0.156 mg/kg, <0 = no reduction observed",<0%
same,"N, mice died/mice used",[1]; 0.625 mg/kg,0/2
same,"BWLmax, maximum body-weight reduction rate","[1]; 0.625 mg/kg, <0 = no reduction observed",<0%
same,toxic death in words,[1]; 10 mg/kg,toxic death of all the cases
same,"BWLmax, maximum body-weight reduction rate",[1]; 10 mg/kg,32.8%
same,"N, mice died/mice used",[1]; 10 mg/kg,2/2
same,day when the maximum body-weight reduction was observed,[1]; 10 mg/kg,26 days
same,"BWLmax, maximum body-weight reduction rate",[1]; 30 mg/kg (as DX-8951 anhydrous free base),17.9%
same,"N, mice died/mice used",[1]; 30 mg/kg,2/2
same,day when the maximum body-weight reduction was observed,[1]; 30 mg/kg,22 days
same,"N, mice died/mice used",[1]; […],0/2
same,"released amount of the drug (DX-8951), percentage of the drug in the drug complex used",[2]; Buffer (pH 4.5),0.190%
same,"released amount of the drug (DX-8951), percentage of the drug in the drug complex used",[2]; Buffer (pH 5.5),0.178%
same,"released amount of the drug (DX-8951), percentage of the drug in the drug complex used",[2]; Buffer (pH 6.5),0.171%
same,"released amount of the drug (DX-8951), percentage of the drug in the drug complex used",[2]; Buffer (pH 7.5),0.138%
same,release of the drug in words,[2]; buffer,hardly released
same,"BWLmax, maximum body-weight reduction rate",[3]; 0.625 mg/kg,<0%
same,"N, mice died/mice used",[3]; 0.625 mg/kg,0/6
same,"IR, diminution rate of the tumor",[3]; 0.625 mg/kg,46%
same,Average tumor weight,[3]; 0.625 mg/kg,1.247 ± 0.280** g
same,"BWLmax, maximum body-weight reduction rate",[3]; 1.25 mg/kg,0.3%
same,"N, mice died/mice used",[3]; 1.25 mg/kg,0/6
same,day when the maximum body-weight reduction was observed,[3]; 1.25 mg/kg,8 days
same,"IR, diminution rate of the tumor",[3]; 1.25 mg/kg,74%
same,Average tumor weight,[3]; 1.25 mg/kg,0.610 ± 0.180*** g
same,"BWLmax, maximum body-weight reduction rate",[3]; 5 mg/kg,2.9%
same,"N, mice died/mice used",[3]; 5 mg/kg,0/6
same,day when the maximum body-weight reduction was observed,[3]; 5 mg/kg,13 days
same,"IR, diminution rate of the tumor",[3]; 5 mg/kg,99%
same,Average tumor weight,[3]; 5 mg/kg,0.019 ± 0.004*** g
same,"BWLmax, maximum body-weight reduction rate",[3]; 7.5 mg/kg,24.8%
same,"N, mice died/mice used",[3]; 7.5 mg/kg,2/6
same,day when the maximum body-weight reduction was observed,[3]; 7.5 mg/kg,15 days
same,"IR, diminution rate of the tumor",[3]; 7.5 mg/kg,100%
same,Average tumor weight,[3]; 7.5 mg/kg,0.008 ± 0.002*** g
same,effect on tumor weight in words,[3]; 0.625 to 7.5 mg/kg,apparently diminished tumor weight dose-dependently
same,"N, mice died/mice used",[3]; […],0/6
same,"released amount of the drug (DX-8951), percentage of the drug in the drug complex used",[4],0.186%
same,"released amount of the drug (DX-8951), percentage of the drug in the drug complex used",[5]; Meth A homogenate (pH 4.5),37.7%
same,"released amount of the drug (DX-8951), percentage of the drug in the drug complex used",[5]; Meth A homogenate (pH 5.5),38.1%
same,"released amount of the drug (DX-8951), percentage of the drug in the drug complex used",[5]; Meth A homogenate (pH 6.5),4.25%
same,releasing rate of DX-8951 relative to the drug complex obtained in Example 5,[5]; tables in Examples 2 and 8,about 113
same,release of the drug in words,[5]; weakly acidic homogenate,rapidly released
same,"BWLmax, maximum body-weight reduction rate",Meth A cells; 0.625 mg/kg,<0%
same,"N, mice died/mice used",Meth A cells; 0.625 mg/kg,0/6
same,"IR, diminution rate of the tumor",Meth A cells; 0.625 mg/kg,43%
same,Average tumor weight,Meth A cells; 0.625 mg/kg,1.489 ± 0.215** g
same,"BWLmax, maximum body-weight reduction rate",Meth A cells; 1.25 mg/kg,<0%
same,"N, mice died/mice used",Meth A cells; 1.25 mg/kg,0/6
same,"IR, diminution rate of the tumor",Meth A cells; 1.25 mg/kg,71%
same,Average tumor weight,Meth A cells; 1.25 mg/kg,0.775 ± 0.207*** g
same,"BWLmax, maximum body-weight reduction rate",Meth A cells; 5 mg/kg,4.0%
same,"N, mice died/mice used",Meth A cells; 5 mg/kg,0/6
same,day when the maximum body-weight reduction was observed,Meth A cells; 5 mg/kg,13 days
same,"IR, diminution rate of the tumor",Meth A cells; 5 mg/kg,100%
same,Average tumor weight,Meth A cells; 5 mg/kg,0.004 ± 0.001*** g
same,"BWLmax, maximum body-weight reduction rate",Meth A cells; 7.5 mg/kg,26.1%
same,"N, mice died/mice used",Meth A cells; 7.5 mg/kg,2/6
same,day when the maximum body-weight reduction was observed,Meth A cells; 7.5 mg/kg,16 days
same,"IR, diminution rate of the tumor",Meth A cells; 7.5 mg/kg,100%
same,Average tumor weight,Meth A cells; 7.5 mg/kg,0.005 ± 0.003*** g
same,"N, mice died/mice used",Meth A cells; […],0/6
carboxymethyldextran polyalcohol-Gly-Gly-NH-p-C6H4—CH2—O—CO-DX-8951 [Example 7],"BWLmax, maximum body-weight reduction rate",[6]; 5 mg/kg,25.4%
same,day when the maximum body-weight reduction was observed,[6]; 5 mg/kg,18 days
same,"BWLmax, maximum body-weight reduction rate",[6]; 10 mg/kg,13.7%
same,day when the maximum body-weight reduction was observed,[6]; 10 mg/kg,16 days
same,"BWLmax, maximum body-weight reduction rate",[6]; 20 mg/kg,14.2%
same,day when the maximum body-weight reduction was observed,[6]; 20 mg/kg,16 days
same,"BWLmax, maximum body-weight reduction rate",[6]; 30 mg/kg,14.6%
same,day when the maximum body-weight reduction was observed,[6]; 30 mg/kg,16 days
same,MTD,[6]; dose as DX-8951 anhydrous free base,<2.5 mg/kg
same,"released amount of the drug (DX-8951), percentage of the drug in the drug complex used",[7]; Buffer (pH 4.5),0.15%
same,"released amount of the drug (DX-8951), percentage of the drug in the drug complex used",[7]; Buffer (pH 6.5),0.16%
same,release of the drug in words,[7]; buffer,hardly released

# Reference: patent US6835807B1, “Drug complex and drug delivery system” (Daiichi Pharmaceuticals Co., Ltd., priority 1998, dated 2004)
